Assay results as given in patent US20240166737A1 (Janssen / Centocor, published 2024).

Assays:
[1] = target: T1, CD3 epsilon on human T-cells (human, UniProt P07766 23-207); test: T cell binding
T1 construct: part of the TCR-CD3 complex on T cells; also called CD3 on T cells

[2] = target: T2, recombinant CD3 (UniProt P07766 23-126); test: SPR; lower end of the range
T2 construct: also called CD3 (SPR)

[3] = target: T2, recombinant CD3; test: SPR; upper end of the range

T2 sequence (P07766 23-126): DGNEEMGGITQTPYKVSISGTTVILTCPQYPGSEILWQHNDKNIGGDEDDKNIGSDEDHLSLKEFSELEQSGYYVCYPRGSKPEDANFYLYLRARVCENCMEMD
T1 sequence (P07766 23-207 limits assumed): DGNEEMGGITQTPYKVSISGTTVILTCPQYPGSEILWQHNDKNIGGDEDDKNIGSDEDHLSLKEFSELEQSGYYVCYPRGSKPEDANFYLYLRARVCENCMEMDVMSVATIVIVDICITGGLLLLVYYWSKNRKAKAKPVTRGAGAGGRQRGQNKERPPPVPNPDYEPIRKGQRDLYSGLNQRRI

EC50 [1]: 1 to 3 nM
Kd [2]: ≥ 0.5 nM
Kd [3]: ≤ 1 nM
B1: CD3W245-HL-ScFv (scFv)
scFv: EVQLVESGGGLVKPGGSLRLSCAASGFTFSRYNMNWVRQAPGKGLEWVSSISTSSNYIYYADSVKGRFTFSRDNAKNSLDLQMSGLRAEDTAIYYCTRGWGPFDYWGQGTLVTVSSGGSEGKSSGSGSESKSTGGSDIQMTQSPSSLSASVGDRVTITCRARQSIGTAIHWYQQKPGKAPKLLIKYASESISGVPSRFSGSGSGTDFTLTISSLQPEDFATYYCQQSGSWPYTFGQGTKLEIK
